This assay deals with Fmoc-FRGD-PEGA surface tethered peptide (Fmoc-F↓RGD bond). The experiment in a line: Enzymatic hydrolysis of PEGA surface tethered peptides analysed by HPLC. Conditions: for Fmoc-F-OH (%) / Fmoc-FR-OH (%): 37° C., 2 hours in enzyme solution, 100% = 4.08 nmol maximum Fmoc-peptide hydrolysed, n=9; for cleavage and selectivity for Fmoc-F↓RGD versus Fmoc-FR↓GD: HPLC. The class given is biochemical. As for the experimental part: Three proteolytic enzymes, chymotrypsin, thermolysin and proteinase K, that are known to cleave peptide bonds involving F amino acids in the P1 position were tested for their ability to selectively hydrolyse Fmoc-F↓RGD bond^15. […] Surfaces were incubated at 37° C. for 2 hours in enzyme solution (concentrations and activities are shown in Table 1) in phosphate buffer and the cleaved products were analysed by HPLC.
Surfaces were rinsed in a known volume (at least 4 ml) of a 50:50 mixture of acetonitrile (ACN) and water. The rinsing solution was kept and added to the enzyme solution that the surface was in. 1 ml of this solution was placed into an HPLC autosampler vial. The HPLC machine (manufactured by Dionex; California, USA) consisted of a P.680 HPLC pump joined to an ASI-100 Automated Sample Injector with a Dionex UVD17OU detector. The column was an EC 250/4.6 Nucleosil 100-5 C18, with an internal diameter of 4.6 mm and a column length of 250 mm containing particles of 5 μm in diameter. 100 μl was injected into the HPLC column at the start of each run and a buffer gradient run through the column, buffer A was 99.9% water and 0.1% TFA, buffer B was 99.9% ACN and 0.1% TFA. For quantification, three samples of each surface were produced and repeated three times.

B1: Thermolysin: proteolytic enzyme (metalloprotease) (protein, UniProt P00800 233-548, looked up)
Thermolysin: ITGTSTVGVGRGVLGDQKNINTTYSTYYYLQDNTRGNGIFTYDAKYRTTLPGSLWADADNQFFASYDAPAVDAHYYAGVTYDYYKNVHNRLSYDGNNAAIRSSVHYSQGYNNAFWNGSQMVYGDGDGQTFIPLSGGIDVVAHELTHAVTDYTAGLIYQNESGAINEAISDIFGTLVEFYANKNPDWEIGEDVYTPGISGDSLRSMSDPAKYGDPDHYSKRYTGTQDNGGVHINSGIINKAAYLISQGGTHYGVSVVGIGRDKLGKIFYRALTQYLTPTSNFSQLRAAAVQSATDLYGSTSQEVASVKQAFDAVGVK
For B1, the “Fmoc-F-OH (%)” value amounted to 40 ± 2.4%; the “Fmoc-FR-OH (%)” value stood at 27 ± 3.5%; the “cleavage and selectivity for Fmoc-F↓RGD versus Fmoc-FR↓GD” value is “poor selectivity”.

B2: Proteinase K: proteolytic enzyme cleaving peptide bonds with F in P1 position (protein, UniProt P06873 106-384, looked up)
Proteinase K: AAQTNAPWGLARISSTSPGTSTYYYDESAGQGSCVYVIDTGIEASHPEFEGRAQMVKTYYYSSRDGNGHGTHCAGTVGSRTYGVAKKTQLFGVKVLDDNGSGQYSTIIAGMDFVASDKNNRNCPKGVVASLSLGGGYSSSVNSAAARLQSSGVMVAVAAGNNNADARNYSPASEPSVCTVGASDRYDRRSSFSNYGSVLDIFGPGTSILSTWIGGSTRSISGTSMATPHVAGLAAYLMTLGKTTAASACRYIADTANKGDLSNIPFGTVNLLAYNNYQA
As for B2, the “Fmoc-F-OH (%)” value amounted to 60 ± 3.0%; the “Fmoc-FR-OH (%)” value amounted to 40 ± 8.0%; the “cleavage and selectivity for Fmoc-F↓RGD versus Fmoc-FR↓GD” value was “highest cleavage but poor selectivity”. In addition, the “maximum amount of Fmoc-peptide cleaved from the surface” value (determined by HPLC) is reported as 4.08 nmol.

Source of the values: patent publication US20100143438A1, “BIOMOLECULES” (University of Strathclyde, priority 2006, published 2010).
